According to US20240301046A1:

Key:
[1] = target: biotin-labelled Aβ1-40 monomer (AnaSpec, AS-61483-01) (UniProt P05067); experiment: capture ELISA, antibody coated at 100 ng per well, biotin-Aβ40 monomer
Aβ1-42 protofibril = Aβ1-42 protofibril (UniProt P05067); experiment: direct ELISA, coated Aβ1-42 protofibril, 50 pmol per well
[2] = target: Aβ1-42 fibril (rPeptide, AF-1002) (UniProt P05067); experiment: direct ELISA, coated Aβ1-42 fibril, 50 pmol per well
[3] = target: Aβ1-40 monomer (rPeptide, A-1157-2) (UniProt P05067); experiment: direct ELISA, coated Aβ1-40 monomer, 50 pmol per well

non-conformation selective anti-Aβ antibody 6E10 (BioLegend, 803001)
EC50 [1]: 0.067 nM
EC50 (Aβ1-42 protofibril): 0.05 nM
EC50 [2]: 0.08 nM
EC50 [3]: 50000 nM
